Residue numbers refer to the chain shown, from its start.

Here are results for 39 molecules from patent US20260201396, “New LoxPsym Sites for Large-Scale Orthogonal Cre-Mediated Recombination” (VIB VZW, published 2026).

The chains are these.
B1: LoxPsym-GTG (dsDNA)
DNA 1: ATAACTTCGTATAGTGTACACTATACGAAGTTAT
DNA 2: B1 DNA 1
B2: LoxPsym-CTT (dsDNA)
DNA 1: B1 DNA 1 with G14C, G16T, C19A, C21G
DNA 2: B1 DNA 1 with G14C, G16T, C19A, C21G
B3: LoxPsym-GTT (dsDNA)
DNA 1: B1 DNA 1 with G16T, C19A
DNA 2: B1 DNA 1 with G16T, C19A
B4: LoxPsym-CTG (dsDNA)
DNA 1: B1 DNA 1 with G14C, C21G
DNA 2: B1 DNA 1 with G14C, C21G
B5: LoxPsym-TCA (dsDNA)
DNA 1: ATAACTTCGTATATCATATGATATACGAAGTTAT
DNA 2: B5 DNA 1
B6: LoxPsym-TAA (dsDNA)
DNA 1: B5 DNA 1 with C15A, G20T
DNA 2: B5 DNA 1 with C15A, G20T
B7: LoxPsym-GAA (dsDNA)
DNA 1: B1 DNA 1 with T15A, G16A, C19T, A20T
DNA 2: B1 DNA 1 with T15A, G16A, C19T, A20T
B8: LoxPsym-TTT (dsDNA)
DNA 1: B1 DNA 1 with G14T, G16T, C19A, C21A
DNA 2: B1 DNA 1 with G14T, G16T, C19A, C21A
B9: LoxPsym-CCT (dsDNA)
DNA 1: B5 DNA 1 with T14C, A16T, T19A, A21G
DNA 2: B5 DNA 1 with T14C, A16T, T19A, A21G
B10: LoxPsym-CTA (dsDNA)
DNA 1: B1 DNA 1 with G14C, G16A, C19T, C21G
DNA 2: B1 DNA 1 with G14C, G16A, C19T, C21G
B11: LoxPsym-GCA (dsDNA)
DNA 1: B5 DNA 1 with T14G, A21C
DNA 2: B5 DNA 1 with T14G, A21C
B12: LoxPsym-CAA (dsDNA)
DNA 1: B5 DNA 1 with T14C, C15A, G20T, A21G
DNA 2: B5 DNA 1 with T14C, C15A, G20T, A21G
B13: LoxPsym-TCT (dsDNA)
DNA 1: B5 DNA 1 with A16T, T19A
DNA 2: B5 DNA 1 with A16T, T19A
B14: LoxPsym-CCA (dsDNA)
DNA 1: B5 DNA 1 with T14C, A21G
DNA 2: B5 DNA 1 with T14C, A21G
B15: LoxPsym-TCG (dsDNA)
DNA 1: B5 DNA 1 with A16G, T19C
DNA 2: B5 DNA 1 with A16G, T19C
B16: LoxPsym-GTA (dsDNA)
DNA 1: B1 DNA 1 with G16A, C19T
DNA 2: B1 DNA 1 with G16A, C19T
B17: LoxPsym-AGC (dsDNA)
DNA 1: ATAACTTCGTATAAGCTAGCTTATACGAAGTTAT
DNA 2: B17 DNA 1
B18: LoxPsym-GAC (dsDNA)
DNA 1: B17 DNA 1 with A14G, G15A, C20T, T21C
DNA 2: B17 DNA 1 with A14G, G15A, C20T, T21C
B19: LoxPsym-AGG (dsDNA)
DNA 1: B17 DNA 1 with C16G, G19C
DNA 2: B17 DNA 1 with C16G, G19C
B20: LoxPsym-ACG (dsDNA)
DNA 1: B17 DNA 1 with G15C, C16G, G19C, C20G
DNA 2: B17 DNA 1 with G15C, C16G, G19C, C20G
B21: LoxPsym-ATT (dsDNA)
DNA 1: B17 DNA 1 with G15T, C16T, G19A, C20A
DNA 2: B17 DNA 1 with G15T, C16T, G19A, C20A
B22: LoxPsym-CGT (dsDNA)
DNA 1: B17 DNA 1 with A14C, C16T, G19A, T21G
DNA 2: B17 DNA 1 with A14C, C16T, G19A, T21G
B23: LoxPsym-CCC (dsDNA)
DNA 1: B17 DNA 1 with A14C, G15C, C20G, T21G
DNA 2: B17 DNA 1 with A14C, G15C, C20G, T21G
B24: LoxPsym-AAC (dsDNA)
DNA 1: B17 DNA 1 with G15A, C20T
DNA 2: B17 DNA 1 with G15A, C20T
B25: LoxPsym-ATA (dsDNA)
DNA 1: B17 DNA 1 with G15T, C16A, G19T, C20A
DNA 2: B17 DNA 1 with G15T, C16A, G19T, C20A
B26: LoxPsym-AGT (dsDNA)
DNA 1: B17 DNA 1 with C16T, G19A
DNA 2: B17 DNA 1 with C16T, G19A
B27: LoxPsym-TGA (dsDNA)
DNA 1: B5 DNA 1 with C15G, G20C
DNA 2: B5 DNA 1 with C15G, G20C
B28: LoxPsym-ACC (dsDNA)
DNA 1: B17 DNA 1 with G15C, C20G
DNA 2: B17 DNA 1 with G15C, C20G
B29: LoxPsym-ACA (dsDNA)
DNA 1: B5 DNA 1 with T14A, A21T
DNA 2: B5 DNA 1 with T14A, A21T
B30: LoxPsym-GGG (dsDNA)
DNA 1: B1 DNA 1 with T15G, A20C
DNA 2: B1 DNA 1 with T15G, A20C
B31: LoxPsym-AGA (dsDNA)
DNA 1: B17 DNA 1 with C16A, G19T
DNA 2: B17 DNA 1 with C16A, G19T
B32: LoxPsym-GGC (dsDNA)
DNA 1: B17 DNA 1 with A14G, T21C
DNA 2: B17 DNA 1 with A14G, T21C
B33: LoxPsym-CGA (dsDNA)
DNA 1: B17 DNA 1 with A14C, C16A, G19T, T21G
DNA 2: B17 DNA 1 with A14C, C16A, G19T, T21G
B34: LoxPsym-TTC (dsDNA)
DNA 1: B17 DNA 1 with A14T, G15T, C20A, T21A
DNA 2: B17 DNA 1 with A14T, G15T, C20A, T21A
B35: LoxPsym-ATC (dsDNA)
DNA 1: B17 DNA 1 with G15T, C20A
DNA 2: B17 DNA 1 with G15T, C20A
B36: LoxPsym-AAG (dsDNA)
DNA 1: B17 DNA 1 with G15A, C16G, G19C, C20T
DNA 2: B17 DNA 1 with G15A, C16G, G19C, C20T
B37: LoxPsym-GCC (dsDNA)
DNA 1: B17 DNA 1 with A14G, G15C, C20G, T21C
DNA 2: B17 DNA 1 with A14G, G15C, C20G, T21C
B38: LoxPsym-GTC (dsDNA)
DNA 1: B1 DNA 1 with G16C, C19G
DNA 2: B1 DNA 1 with G16C, C19G
B39: LoxPsym-CTC (dsDNA)
DNA 1: B17 DNA 1 with A14C, G15T, C20A, T21G
DNA 2: B17 DNA 1 with A14C, G15T, C20A, T21G

This series deals with T1, Cre recombinase (Punavirus P1).
T1 chain: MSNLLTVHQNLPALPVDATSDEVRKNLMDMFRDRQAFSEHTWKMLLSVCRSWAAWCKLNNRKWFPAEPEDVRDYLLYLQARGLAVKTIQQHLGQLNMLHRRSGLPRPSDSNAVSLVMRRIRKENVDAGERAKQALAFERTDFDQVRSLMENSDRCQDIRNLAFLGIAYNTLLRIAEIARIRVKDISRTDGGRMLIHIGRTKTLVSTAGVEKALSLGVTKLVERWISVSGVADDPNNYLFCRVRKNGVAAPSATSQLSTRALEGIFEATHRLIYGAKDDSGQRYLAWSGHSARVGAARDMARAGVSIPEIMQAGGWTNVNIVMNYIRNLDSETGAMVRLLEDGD
Kind of series: cell_activity; as above. An excerpt: Similar to the development of the original LoxPsym site by Hoess et al. (1986 J Cell Biochem), we edited the spacer of the LoxP site to obtain new non-directional recombination sites. In doing so, we focused on altering the first three nucleotides of the spacer (FIG. 2), as it was shown before that changing the nucleotides at position 4 and 5 of the spacer (T and A respectively) prevents recombination (Hoess et al 1986). The last three nucleotides were adapted accordingly to ensure the spacer remained palindromic. As such, we were able to design maximally 63 new potential LoxPsym sites. To test if the Cre enzyme was still able to recombine the new LoxPsym variants, we conducted a fluorescent-based assay in yeast via genomic integration of a fluorescence cassette which was flanked by identical LoxPsym variants at both sites (FIGS. 3A and 3C). Recombination of functional LoxPsym variants enables the deletion of the fluorescence cassette. The fraction of non-fluorescent cells in the population after induction of Cre-mediated recombination, was used to determine the recombination efficiency of the new LoxPsym sites. To verify if this set-up is valid for estimation of the recombination efficiency, the dual-fluorescent-reporter system shown in FIG. 3A was used to assess the frequency of inversion/deletion over time. […] Recombination efficiencies largely altered between different LoxPsym variants (Table 1). 63 new LoxPsym variants were obtained with altering recombination efficiencies ranging from 13% to 89%.
Consider B1, for which the activity turned out to be 40.3%.

Regarding B2, the activity was 34.8%. With B3 the figure was 64.6%; with B4, 53.1%. With B5 the figure was 39.9%.

Take B6: the activity was determined as 65.5%. The figure for B7 is 46.2%; for B8 it is 44.5%. For B9, the activity was determined as 51.2%. With B10 the figure was 34.1%; with B11, 59.1%. For the molecule B12, the activity turned out to be 59.7%. As to B13, the activity was found to be 43.3%. The figure for B14 is 53.9%. The figure for B15 is 59%; for B16 it is 64.3%; for B17 it is 32.6%. Consider B18, for which the activity came out at 67.4%. The figure for B19 is 49.1%; for B20 it is 51.1%; for B21 it is 42.2%. On to B22, for which the activity was 46.9%. As for B23, the activity was 67.2%. The figure for B24 is 46%; for B25 it is 43.1%.

As to B26, the activity is 43.4%.

As to B27, the activity came out at 58.8%.

For the molecule B28, the activity was found to be 41.4%.

In the case of B29, the activity worked out at 38.3%.

Consider B30, for which the activity is 45.6%. The figure for B31 is 35.1%; for B32 it is 43.6%. With B33 the figure was 54.4%; with B34, 62.3%; with B35, 56.5%.

As to B36, the activity was found to be 44.1%. The figure for B37 is 65.1%. With B38 the figure was 44.3%; with B39, 38.2%.
